Results as given in the supplement of paper PMC10567573.

B1: STK38L (parent)
chain: FCIDSENRIGNSGVEEIKGHPFFE
B2: INTS3 (parent)
chain: EEITEESLEESVGKPLYLIFRNLC
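Note: lentivirally expressed fusions sorted by FACS into six bins by GFP to DsRed ratio, PSI derived from sequencing read proportions per bin multiplied by bin number.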

Variants of: B1
Assay: protein stability index of a GFP-peptide fusion (GPS, HEK-293T) (PSI 1-6); higher = more stable
Conditions: c terminus: a fixed tail appended
With E16Q the protein stability index was 2.54. E16R showed a protein stability index of 2.3. For E16S, the protein stability index was 1.85. In the case of E16T, the protein stability index is reported as 2.35. E16V showed a protein stability index of 1.87. E16W showed a protein stability index of 1.44. In the case of E16Y, the protein stability index is reported as 1.51. Variant I17C has a protein stability index of 2.84. I17D gave a protein stability index of 3.1. Work on I17E yielded a protein stability index of 3.47. In the case of I17F, the protein stability index is reported as 2.36. In the case of I17G, the protein stability index is reported as 2.38. For I17H, the protein stability index was 2.16. I17K showed a protein stability index of 2.35. With I17L the protein stability index was 2.61. With I17M the protein stability index was 2.79. I17N showed a protein stability index of 2.88. In the case of I17P, the protein stability index is reported as 2.54. I17Q gave a protein stability index of 2.53. With I17R the protein stability index was 2.1. With I17S the protein stability index was 3.17. I17T showed a protein stability index of 3.17. For I17W, the protein stability index was 1.67. For I17Y, the protein stability index was 2.18. In the case of K18A, the protein stability index is reported as 2.48. With K18C the protein stability index was 2.82. With K18D the protein stability index was 4.12. Work on K18E yielded a protein stability index of 3.07. K18F gave a protein stability index of 2.12. Work on K18G yielded a protein stability index of 2.36. For K18H, the protein stability index was 2.34. Work on K18I yielded a protein stability index of 2.31. Variant K18L has a protein stability index of 2.89. Variant K18M has a protein stability index of 1.65. K18N gave a protein stability index of 2.8. K18P gave a protein stability index of 3.07. Variant K18Q has a protein stability index of 2.2. In the case of K18S, the protein stability index is reported as 3. In the case of K18T, the protein stability index is reported as 2.6. Work on K18V yielded a protein stability index of 2.63. K18W showed a protein stability index of 2.47. In the case of K18Y, the protein stability index is reported as 2.16. G19A gave a protein stability index of 2.15. G19C gave a protein stability index of 1.68. In the case of G19D, the protein stability index is reported as 3.21. For G19E, the protein stability index was 3.45. G19F showed a protein stability index of 1.8. For G19H, the protein stability index was 2.13. Variant G19I has a protein stability index of 1.54. In the case of G19K, the protein stability index is reported as 2.16. G19L gave a protein stability index of 1.87. Work on G19M yielded a protein stability index of 1.67. Variant G19N has a protein stability index of 2.68. G19P gave a protein stability index of 1.99. G19Q showed a protein stability index of 2.37. G19R gave a protein stability index of 1.63. In the case of G19S, the protein stability index is reported as 2.43. G19T gave a protein stability index of 2.19. Variant G19V has a protein stability index of 2.09. G19W gave a protein stability index of 2.27. Variant G19Y has a protein stability index of 1.99. H20A gave a protein stability index of 3.79. H20C gave a protein stability index of 1.54. H20D showed a protein stability index of 2.53. Variant H20E has a protein stability index of 4.12. In the case of H20F, the protein stability index is reported as 2.62. Variant H20G has a protein stability index of 3.09. H20I showed a protein stability index of 2.95. With H20K the protein stability index was 3.41. Work on H20L yielded a protein stability index of 2.69. In the case of H20M, the protein stability index is reported as 2.71. H20N gave a protein stability index of 2.67. For H20P, the protein stability index was 3.45. In the case of H20Q, the protein stability index is reported as 3.48. Work on H20R yielded a protein stability index of 2.35. For H20T, the protein stability index was 3.83. H20V showed a protein stability index of 3.19. In the case of H20Y, the protein stability index is reported as 2.47. Work on P21A yielded a protein stability index of 2.72. P21C gave a protein stability index of 2.07. Work on P21D yielded a protein stability index of 4.22. Work on P21E yielded a protein stability index of 3.52. In the case of P21F, the protein stability index is reported as 1.7. For P21G, the protein stability index was 2.54. For P21H, the protein stability index was 2.89. With P21I the protein stability index was 2.46. Work on P21K yielded a protein stability index of 2.84. P21L showed a protein stability index of 1.42. Variant P21M has a protein stability index of 1.94. Work on P21N yielded a protein stability index of 3.13. P21Q gave a protein stability index of 2.99. Variant P21R has a protein stability index of 2.97. With P21S the protein stability index was 3.73. Variant P21T has a protein stability index of 2.91. With P21V the protein stability index was 2.28. Variant P21W has a protein stability index of 1.9. With P21Y the protein stability index was 2.25. F22A gave a protein stability index of 3.58. With F22C the protein stability index was 3.81. For F22D, the protein stability index was 5.23. Variant F22E has a protein stability index of 4.79. Variant F22G has a protein stability index of 4.37. In the case of F22H, the protein stability index is reported as 4.33. With F22I the protein stability index was 3.65. With F22K the protein stability index was 4.49. With F22L the protein stability index was 3.74. F22N gave a protein stability index of 4.5. Work on F22P yielded a protein stability index of 4.32. In the case of F22Q, the protein stability index is reported as 3.1. For F22R, the protein stability index was 4.21. For F22T, the protein stability index was 4.5. F22V gave a protein stability index of 4.11. With F22Y the protein stability index was 2.42. F23A showed a protein stability index of 1.78. F23C showed a protein stability index of 1.8. Work on F23D yielded a protein stability index of 4.86. F23H gave a protein stability index of 2.69. Variant F23I has a protein stability index of 2.47. With F23K the protein stability index was 2.19. Variant F23L has a protein stability index of 2.52. For F23M, the protein stability index was 1.07. With F23N the protein stability index was 4.2. With F23P the protein stability index was 4.07. In the case of F23R, the protein stability index is reported as 1.72. In the case of F23S, the protein stability index is reported as 1.93. Variant F23T has a protein stability index of 1.46. For F23V, the protein stability index was 1.85. Work on F23W yielded a protein stability index of 2.02. F23Y showed a protein stability index of 3.35. E24A showed a protein stability index of 1.92. In the case of E24C, the protein stability index is reported as 2.7. With E24D the protein stability index was 2.24. For E24F, the protein stability index was 1.74. Work on E24G yielded a protein stability index of 1.59. In the case of E24H, the protein stability index is reported as 1.54. Work on E24I yielded a protein stability index of 2.72. E24K showed a protein stability index of 1.72. With E24L the protein stability index was 4. E24M showed a protein stability index of 1.45. E24N gave a protein stability index of 2.19. In the case of E24P, the protein stability index is reported as 2.01. For E24Q, the protein stability index was 1.75. Variant E24S has a protein stability index of 2.15. Variant E24T has a protein stability index of 1.21. E24V gave a protein stability index of 1.71. For E24W, the protein stability index was 1.61. Variant E24Y has a protein stability index of 1.69.

Variants of: B2
Assay: as above
Conditions: c terminus: a fixed tail appended
Work on E1A yielded a protein stability index of 3.14. For E1C, the protein stability index was 2.29. With E1D the protein stability index was 2.68. Variant E1F has a protein stability index of 1.8. Variant E1G has a protein stability index of 2.69. E1H showed a protein stability index of 2.67. E1I showed a protein stability index of 2.22. E1K gave a protein stability index of 2.51. In the case of E1L, the protein stability index is reported as 2.46. Variant E1M has a protein stability index of 2.45. Work on E1N yielded a protein stability index of 2.88. Variant E1P has a protein stability index of 2.27. With E1Q the protein stability index was 3.06. For E1R, the protein stability index was 2.2. In the case of E1S, the protein stability index is reported as 2.58. E1T showed a protein stability index of 2.6. E1V showed a protein stability index of 2.31. Work on E1W yielded a protein stability index of 2.52. In the case of E1Y, the protein stability index is reported as 2.3. E2A showed a protein stability index of 1.98.
